Data set [1] concerns the target photosystem I (PSI) reaction center (Synechocystis sp. PCC 6803 (endogenous in S. 6803 cells)) (UniProt P37277). Put plainly: native gel or EMSA; BN-PAGE, 4-16% Bis/Tris gels, of PSI fractions isolated by anion-exchange chromatography (or sucrose gradients), 0.04% DDM; bands compared to literature; WT and ORR1 cells, GL or FL.
For data set [2] the target is unchanged. In words: anion-exchange chromatography; DDM-solubilised thylakoid membranes (2 mg chl) on DEAE, MgSO4 gradient, 0.04% DDM; A700 peak areas of the PSI trimer and PSI monomer fractions; cells grown under standard conditions (GL); WT and ORR1 strains.
For data set [3] the target is unchanged. Put plainly: anion-exchange chromatography; DDM-solubilised thylakoid membranes (2 mg chl) on DEAE, MgSO4 gradient, 0.04% DDM; A700 peak areas of the PSI trimer and PSI monomer fractions; cells grown under increased photon flux (FL); WT and ORR1 strains.
Data set [4] has as its system P37277. Put plainly: anion-exchange chromatography; DDM-solubilised thylakoid membranes (2 mg chl) on DEAE, MgSO4 gradient, 0.04% DDM; A700 peak areas of the PSI trimer and PSI monomer fractions; cells grown under standard conditions (GL); WT and ORR1 strains. As to conditions: other: anion-exchange chromatography.
The subject of data set [5] is P37277. Put plainly: anion-exchange chromatography; DDM-solubilised thylakoid membranes (2 mg chl) on DEAE, MgSO4 gradient, 0.04% DDM; A700 peak areas of the PSI trimer and PSI monomer fractions; cells grown under increased photon flux (FL); WT and ORR1 strains. The settings on record: other: anion-exchange chromatography.

photosystem I (PSI) reaction center, sequence (P37277 whole entry, looked up): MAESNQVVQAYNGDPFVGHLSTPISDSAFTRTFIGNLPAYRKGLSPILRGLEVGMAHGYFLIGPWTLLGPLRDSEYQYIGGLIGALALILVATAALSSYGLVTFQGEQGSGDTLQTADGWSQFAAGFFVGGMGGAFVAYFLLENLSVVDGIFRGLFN

“photosystem I (PSI) reaction center (from UniProt P37277 1-157) (complex)” displayed a stoichiometry N in data set [1] of 3. In addition, in data set [2], the Monomer : trimer (A700 peak areas), ORR1 strain was 0.23; the Monomer : trimer (A700 peak areas), WT strain came out at 0.17; the Trimer : monomer (A700 peak areas), ORR1 strain is 4.6; the Trimer : monomer (A700 peak areas), WT strain was 6.3. In data set [3], the Monomer : trimer (A700 peak areas), ORR1 strain is 0.53; the Monomer : trimer (A700 peak areas), WT strain was 0.11; the Trimer : monomer (A700 peak areas), ORR1 strain stood at 2; the Trimer : monomer (A700 peak areas), WT strain was determined as 9.2.

As for photosystem I (PSI) reaction center, in the data set with P37277 [4], the Monomer (% of total PSI), ORR1 strain (% of total PSI) was 18 and the Monomer (% of total PSI), WT strain (% of total PSI) is 14. In addition, in the data set on P37277 [5], the Monomer (% of total PSI), ORR1 strain (% of total PSI) worked out at 34 and the Monomer (% of total PSI), WT strain (% of total PSI) was 10.
